Measured values published in patent US8318918B2, “Chalcone 3-hydroxylase” (Technische Universitat Wien, priority 2009, dated 2012).

Experiments:
[1] = tested on: recombinant CH3H from Cosmos sulphureus; assay: Enzyme assay and kinetic studies of recombinant CH3H with 14C-labelled substrates; format: biochemical; details: recombinant enzyme from the Cosmos sulphureus cDNA clone expressed in yeast
From the text: Heterologous Expression in Yeast For the heterologous expression, the proofreading amplicons were ligated into the yeast expression vector pYES2.1/V5-His-TOPO® (Invitrogen, UK) and transformed into E. coli TOP10F′ (Invitrogen, UK). The identification of the sense constructs took place with a PCR, for which a gene-specific forward and a plasmid-specific reverse primer was used. Sense constructs were isolated and the correct sequence confirmed by sequencing. Desired plasmids were then transformed into the yeast strain INVSc 1 (Invitrogen, UK). The heterologous expression was performed according to methods known in science, and the prepared proteins were shock-frozen in liquid nitrogen and stored at −80° C. […]
(§1) In order to determine the substrate specificity of the heterologously expressed F3′Hs, the following enzyme tests were performed: 20 μg of the recombinant wild-type CH3H or 50 μg of the hybrid proteins, respectively, were incubated with 0.25 nmol [14C]-marked chalcone or flavonoid substrates in the presence of 10 mM NADPH and 0.1 M KH2PO4—K2HPO4 (with 0.4% Na-ascorbate, pH: 7.5) buffer at 30° C. […] Detection and quantification of radioactivity took place using TLC analysis.
Kinetic data (apparent Michaelis constant (Km) and maximum speed of reaction (Vmax)) were determined using Lineweaver Burk plots.

[2] = F3′H activity (substrate acceptance) of heterologously expressed native, chimeric and mutated enzymes; format: biochemical, Cosmos sulphureus; details: recombinant enzymes expressed in yeast
From the text: (§2) Heterologous Expression in Yeast For the heterologous expression, the proofreading amplicons were ligated into the yeast expression vector pYES2.1/V5-His-TOPO® (Invitrogen, UK) and transformed into E. coli TOP10F′ (Invitrogen, UK). The identification of the sense constructs took place with a PCR, for which a gene-specific forward and a plasmid-specific reverse primer was used. Sense constructs were isolated and the correct sequence confirmed by sequencing. Desired plasmids were then transformed into the yeast strain INVSc 1 (Invitrogen, UK). The heterologous expression was performed according to methods known in science, and the prepared proteins were shock-frozen in liquid nitrogen and stored at −80° C. The determination of the amount of protein in the preparations was performed according to a modified Lowry method.
as §1

[3] = CH3H activity (hydroxylation of chalcones) of heterologously expressed native, chimeric and mutated enzymes; format: biochemical, Cosmos sulphureus; details: recombinant enzymes expressed in yeast
From the text: as §2, §1

| Molecule | catalytic CH3H activity with substrate [1] | F3′H activity [2] | CH3H activity (hydroxylation of chalcones) [3] |
| --- | --- | --- | --- |
| O=C(/C=C/c1ccc(O)cc1)c1ccc(O)cc1O [Iso, isoliquiritigenin] | high catalytic CH3H activities | – | – |
| F3′H: recombinant F3′H from Cosmos sulphureus (Accession No.: FJ216426), tested as a comparison (protein, listed as Cosmos sulphureus) MTILPLLLYPSLTALLLYVLLNLRPRHPNRLPPGPSPWPIVGNLPHLGTTPHHSLAALAAKYGPLMHLRLGFVDVVVAASASVASQFLKTHDANFASRPPNSGAEHMAYNYQDLVFAPYGPRWRMLRKICSVHLFSGKALDDFRHVRQEEVAVLTRALAGAGKSPVKLGQLLSVCTTNALARVMLGRRVFGERDAKADEFKDMVVEMMVLAGEFNIGDFIPALDWLDLQGITKKMKKLHAQFDSFLNTILEEHKTGKGGSSSHRDLSSTLIALKDDADGEGGKLSDIEIKALLLNLFIAGTDTSSSTVEWAIAELIRCPQILRQAHEEMDNVVGRERLVTESDLGKLTFLQAIVKETFRLHPSTPLSLPRIASESCEIDGYFIPKGSTLLVNVWAIARDPKMWTDPLEFRPTRFLPGGEKPNVDVKGNDFEVIPFGAGRRICVGISLGLRMVQLLVATLVQTFDWELANGVLPEKLNMNEAFGLTLQRAEPLIVYPKPRLAPHVYESG | – | confirmed the F3′H activity | lacking CH3H activity |
